Experimental data: patent JP2014141434A (dated 2014)

How the values were obtained:
[1] = target: T1, 全長ヒトROBO4 (pCI−hROBO4導入細胞) (human, UniProt Q8WZ75 28-1007); test: flow cytometry, hybridoma supernatant on hROBO4-transfected HEK293T cells against mock cells
T1 construct: Expressed from pCI-hROBO4 on HEK293 / HEK293T cells; also called human ROBO4
T1 sequence: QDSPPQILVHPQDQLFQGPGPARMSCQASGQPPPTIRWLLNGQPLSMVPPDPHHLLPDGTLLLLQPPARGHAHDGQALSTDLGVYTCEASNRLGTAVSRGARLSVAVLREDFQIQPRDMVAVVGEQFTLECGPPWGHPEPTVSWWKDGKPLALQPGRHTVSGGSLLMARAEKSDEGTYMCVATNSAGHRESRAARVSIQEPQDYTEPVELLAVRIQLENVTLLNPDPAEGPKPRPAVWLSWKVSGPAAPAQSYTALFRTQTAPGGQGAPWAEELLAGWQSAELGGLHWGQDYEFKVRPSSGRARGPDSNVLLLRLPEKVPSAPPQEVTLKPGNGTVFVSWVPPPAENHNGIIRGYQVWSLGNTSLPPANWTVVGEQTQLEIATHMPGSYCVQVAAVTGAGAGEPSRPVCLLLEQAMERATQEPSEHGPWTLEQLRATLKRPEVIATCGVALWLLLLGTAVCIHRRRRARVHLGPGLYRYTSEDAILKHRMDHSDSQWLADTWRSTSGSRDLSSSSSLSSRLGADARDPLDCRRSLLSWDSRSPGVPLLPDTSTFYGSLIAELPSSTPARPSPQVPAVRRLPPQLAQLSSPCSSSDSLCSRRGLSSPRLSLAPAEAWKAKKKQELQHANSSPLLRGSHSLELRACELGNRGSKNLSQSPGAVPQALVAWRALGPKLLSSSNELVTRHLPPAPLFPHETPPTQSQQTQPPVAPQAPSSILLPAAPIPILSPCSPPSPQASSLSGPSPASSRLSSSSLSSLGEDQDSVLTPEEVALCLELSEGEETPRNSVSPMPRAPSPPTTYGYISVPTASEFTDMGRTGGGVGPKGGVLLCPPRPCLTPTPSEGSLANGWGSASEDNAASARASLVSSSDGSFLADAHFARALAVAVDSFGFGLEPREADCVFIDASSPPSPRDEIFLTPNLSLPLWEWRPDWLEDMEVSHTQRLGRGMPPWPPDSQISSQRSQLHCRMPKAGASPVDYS

[2] = target: T2, N末端FLAG−tag付加型全長ヒトROBO4 hROBO4−28 (human, UniProt Q8WZ75 28-1007); test: flow cytometry, transfected HEK293 cells, 10 μg/mL
T2 construct: On HEK293 cells; also called pCI−FLAG−hROBO4−28
T2 sequence: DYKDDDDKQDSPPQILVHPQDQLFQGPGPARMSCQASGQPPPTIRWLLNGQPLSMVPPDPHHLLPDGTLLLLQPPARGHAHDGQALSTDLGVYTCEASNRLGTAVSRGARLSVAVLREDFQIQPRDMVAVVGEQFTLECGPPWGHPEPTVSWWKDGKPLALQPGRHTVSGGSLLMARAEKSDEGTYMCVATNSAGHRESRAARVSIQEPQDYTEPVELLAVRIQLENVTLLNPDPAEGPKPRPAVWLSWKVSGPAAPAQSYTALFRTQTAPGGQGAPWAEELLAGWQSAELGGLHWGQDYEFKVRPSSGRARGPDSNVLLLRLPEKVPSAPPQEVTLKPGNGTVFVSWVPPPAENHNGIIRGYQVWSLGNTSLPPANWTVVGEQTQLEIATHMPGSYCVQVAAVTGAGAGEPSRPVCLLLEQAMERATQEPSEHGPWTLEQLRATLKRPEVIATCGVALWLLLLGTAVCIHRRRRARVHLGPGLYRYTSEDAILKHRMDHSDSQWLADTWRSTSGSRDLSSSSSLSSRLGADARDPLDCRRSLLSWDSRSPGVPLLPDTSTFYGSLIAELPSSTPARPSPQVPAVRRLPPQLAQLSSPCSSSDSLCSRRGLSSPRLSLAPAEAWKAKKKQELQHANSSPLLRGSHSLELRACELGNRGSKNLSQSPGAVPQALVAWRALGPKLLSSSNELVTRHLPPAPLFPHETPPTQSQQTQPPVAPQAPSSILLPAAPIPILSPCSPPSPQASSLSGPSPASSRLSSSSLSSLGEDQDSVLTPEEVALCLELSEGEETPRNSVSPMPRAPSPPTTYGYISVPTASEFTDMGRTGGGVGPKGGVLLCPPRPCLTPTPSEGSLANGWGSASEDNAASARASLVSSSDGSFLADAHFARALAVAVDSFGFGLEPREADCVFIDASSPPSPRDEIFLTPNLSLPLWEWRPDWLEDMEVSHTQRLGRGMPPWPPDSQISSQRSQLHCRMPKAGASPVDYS

[3] = target: T3, N末端FLAG−tag付加型ヒトROBO4細胞外領域ドメイン欠損体 hROBO4−210 (human, UniProt Q8WZ75 210-1007); test: flow cytometry, transfected HEK293 cells
T3 construct: On HEK293 cells; also called pCI−FLAG−hROBO4−210; pCI−hROBO4−210
T3 sequence: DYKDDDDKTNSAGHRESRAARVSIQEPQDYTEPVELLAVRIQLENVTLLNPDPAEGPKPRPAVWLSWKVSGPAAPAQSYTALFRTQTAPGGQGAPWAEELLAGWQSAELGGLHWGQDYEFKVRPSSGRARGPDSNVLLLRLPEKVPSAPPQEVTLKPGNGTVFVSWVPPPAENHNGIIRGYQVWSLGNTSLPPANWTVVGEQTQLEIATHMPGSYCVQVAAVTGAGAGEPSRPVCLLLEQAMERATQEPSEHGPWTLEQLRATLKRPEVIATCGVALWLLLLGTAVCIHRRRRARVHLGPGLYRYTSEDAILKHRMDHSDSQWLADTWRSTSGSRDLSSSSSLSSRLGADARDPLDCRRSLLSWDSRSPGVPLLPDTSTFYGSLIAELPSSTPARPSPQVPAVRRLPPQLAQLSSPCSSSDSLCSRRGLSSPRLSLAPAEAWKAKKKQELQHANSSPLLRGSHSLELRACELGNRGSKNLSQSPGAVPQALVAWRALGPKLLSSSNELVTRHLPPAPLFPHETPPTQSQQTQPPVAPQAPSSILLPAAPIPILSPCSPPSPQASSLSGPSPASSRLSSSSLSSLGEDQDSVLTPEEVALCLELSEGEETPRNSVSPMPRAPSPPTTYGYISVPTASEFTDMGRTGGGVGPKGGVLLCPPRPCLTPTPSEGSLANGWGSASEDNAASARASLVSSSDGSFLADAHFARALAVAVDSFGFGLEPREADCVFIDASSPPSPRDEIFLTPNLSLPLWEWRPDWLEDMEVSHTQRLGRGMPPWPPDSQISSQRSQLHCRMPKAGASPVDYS

binding result [1]: binds | binding result [2]: binds | binding result [3]: no binding (tested: 10 μg/mL)
B1: 抗ROBO4マウスモノクローナル抗体 MAb1 (antibody, V domains shown)
VH: EVQLVESGGGLVKPGGSLKLSCAASGFTFSTYAMSWVRQTPEKRLEWVATISNGGTYTYYPDSVKGRFTISRDNAENTLYLQMSSLRSEDTAMYFCARLIYYDYLDYWGHGTTLTVSS
VL: DAVMTQTPLSLPVSLGDQASISCRSSQSLENSNGNTYLNWYFQKPGQSPQLLIYRVSNRFSGVLDRFSGSGSGTDFTLKISRVEAEDFGVYFCLQVTHVPWTFGGGTKLEIKR
notes: Mouse IgG1 (gamma 1) / kappa from a hybridoma; The constant regions are not in the listing; also called MAb1
